Reference: patent publication US20140221622A1 (AbbVie / Abbott, published 2014)
Changes are numbered by the printed parent chain. Read-outs that look alike come from different tables or passages of the source.

Tests used:
[1] = target: T1, c-Met on tumor cell lines (A549, IM-95, SNU-5, SNU-620) (UniProt P08581 25-1390, limits assumed); experiment: cell-based or functional assay
[2] = target: T2, Neonatal Fc receptor (FcRn) on CHO-FcRnGPI cells; experiment: flow cytometry on CHO-FcRnGPI cells, pH 6.4
T2 construct: whole, on cells; nothing more is said; also called FcRn receptors
Description: CHO-FcRnGPI cells (Stable FcRn receptor expressor) and CHO-pBudl l cells (non-FcRn expressor) were aliquotted into 96-well plates at 1×10⁵ cells/well. Cells were resuspended in 150 μl FACS buffer. […] 30 μl of diluted antibody or half-Ig binding protein was added to each well and incubated on ice for 1 hour. Following 2 washes with FACS buffer, 50 μl of secondary antibody R-phycoerythrin-conjugated AfiniPure F(ab′)2 Fragment goat anti-human IgG (Jackson ImmunoResearch, West Grove, Pa.) diluted in FACS buffer pH 6.4 or pH7.4 was added. The mixture was incubated for 30 min on ice. The cells were resuspended in 100 μl PBS with 1% FBS (Invitrogen, Carlsbad, Calif.) and 2 μg/ml propidium iodide (Invitrogen, Carlsbad, Calif.) of the corresponding pH. Final FACS data were acquired on a FACScan (Becton Dickinson, Franklin Lakes, N.J.).

[3] = target: T3, rhcMetECD (cMet extracellular domain) (human, UniProt P08581 25-932); experiment: SPR (Biacore 3000), apparent stoichiometry at saturating rhcMetECD
T3 construct: extracellular domain; also called cMet antigen
Excerpt: Unreacted moieties on the biosensor surface were blocked with ethanolamine. Modified carboxymethyl dextran surface in flowcell 2 and 4 was used as a reaction surface. Unmodified carboxymethyl dextran without goat anti-human IgG in flow cell 1 and 3 was used as the reference surface. For kinetic analysis, rate equations derived from the 1:1 Langmuir binding model were fitted simultaneously to association and dissociation phases of all ten injections (using global fit analysis) using the Bioevaluation 4.0.1 software. Purified MBody samples were diluted in HEPES-buffered saline for capture across goat anti-human IgG Fc specific reaction surfaces and injected over reaction matrices at a flow rate of 5 ml/min. […] The equilibrium dissociation constant (M) of the reaction between MBody and rhcMetECD was then calculated from the kinetic rate constants by the following formula: KD=koff/kon. Aliquots of rhcMetECD samples were also simultaneously injected over a blank reference and reaction CM surface to record and subtract any nonspecific binding background to eliminate the majority of the refractive index change and injection noise. […] The apparent stoichiometry of the captured MBody-rhcMetECD complex was calculated under saturating binding conditions (steady-state equilibrium) using the following formula:

biotin-labeled cMet [4] = target: T4, biotin-labeled cMet (UniProt P08581 25-932, limits assumed, biotin label (site not stated)); experiment: ELISA: antibody captured on anti-IgG Fc coat, bound biotin-labeled cMet detected with streptavidin-HRP
T4 construct: also called cMet antigen

biotin-labeled cMet [5] = target: T4, biotin-labeled cMet; experiment: as above; remark: listed apart in the source
Description: (§1) cMet binding ELISA was performed to characterize the antigen binding property of cMet antibodies. 96-well ELISA plates were coated with 100 μl/well 5 μg/ml anti-mouse IgG Fc in PBS at 4° C. overnight. After 3 washes with PBS/0.05% Tween®20, the plates were blocked with 5% milk in PBS for 1 hour at room temperature. After another 3 washes with PBS/0.05% Tween®20, 100 μl cMet antibody was added to each well followed by an incubation of 1 hour at room temperature. Binding biotin-labeled cMet was detected by Streptavidin-horseradish peroxidase (KPL, Gaithersburg, Md.) and tetramethylbenzidine (Thermo Scientific, Rockford, Ill.). Final absorbances were acquired at 450 nm after stopping the reactions with 2 mol/L H₂SO₄. […] The terms EC₅₀ and IC₅₀ may be used interchangeably in this Example to reflect the concentration of the antibody which induces a response halfway between the baseline and the maximum after a specified exposure time.

[6] = target: T3, rhcMetECD (cMet extracellular domain); experiment: SPR (Biacore 3000), binding protein captured on anti-human IgG Fc, rhcMetECD injected, 1:1 Langmuir fit, 25 C
Description: The kinetics of MBody binding to rhcMetECD (extracellular domain) was determined by surface plasmon resonance-based measurements with a Biacore 3000 instrument (Biacore AB, Uppsala, Sweden) using HBS-EP (10 mM HEPES, pH 7.4, 150 mM NaCl, 3 mM EDTA, and 0.005% surfactant P20) at 25° C. […] Approximately, 5000 RU of goat anti-human IgG Fcγ fragment specific polyclonal antibody (Pierce Biotechnology Inc, Rockford, Ill.) diluted in 10 mM sodium acetate (pH 4.5) was directly immobilized across a CM5 research grade biosensor chip using a standard amine coupling kit according to manufacturer's instructions and procedures at 25 mg/ml. Unreacted moieties on the biosensor surface were blocked with ethanolamine. Modified carboxymethyl dextran surface in flowcell 2 and 4 was used as a reaction surface. Unmodified carboxymethyl dextran without goat anti-human IgG in flow cell 1 and 3 was used as the reference surface. For kinetic analysis, rate equations derived from the 1:1 Langmuir binding model were fitted simultaneously to association and dissociation phases of all ten injections (using global fit analysis) using the Bioevaluation 4.0.1 software. Purified MBody samples were diluted in HEPES-buffered saline for capture across goat anti-human IgG Fc specific reaction surfaces and injected over reaction matrices at a flow rate of 5 ml/min. […] The equilibrium dissociation constant (M) of the reaction between MBody and rhcMetECD was then calculated from the kinetic rate constants by the following formula: KD=koff/kon. Aliquots of rhcMetECD samples were also simultaneously injected over a blank reference and reaction CM surface to record and subtract any nonspecific binding background to eliminate the majority of the refractive index change and injection noise. Surfaces were regenerated with two subsequent 25 ml injections of 10 mM Glycine (pH 1.5) at a flow rate of 5 ml/min.

[7] = target: T5, CD40 on CD40-overexpressing HEK 293 cells (UniProt P25942 21-277, limits assumed); experiment: cell-based or functional assay
[8] = target: T5, CD40 on CD40-overexpressing HEK 293 …; experiment: flow cytometry on CD40-overexpressing HEK 293 cells, APC anti-human Fc
Description: Followed by 30 min incubation on ice with an APC-conjugated anti-human Fc antibody. Cells then are washed twice and resuspended in PBS/FBS. Fluorescence was measured using a Becton Dickinson FACSCalibur (Becton Dickinson, San Jose, Calif.).

[9] = target: T5, CD40 on CD40-overexpressing HEK 293 …; experiment: as above; remark: listed apart in the source
Description: First, the CD40-overexpressing HEK 293 cells were stained with hIgG1 or testing material at a range of 0.01 μg/ml to 10 μg/ml. Followed by 30 min incubation on ice with an APC-conjugated anti-human Fc antibody. Cells then are washed twice and resuspended in PBS/FBS. Fluorescence was measured using a Becton Dickinson FACSCalibur (Becton Dickinson, San Jose, Calif.).
The binding of proteins were examined by FACS.

[10] = target: T1, c-Met on tumor cell lines (A549, IM-95, …); experiment: cell-based or functional assay; remark: listed apart in the source
biotin-labeled cMet [11] = target: T4, biotin-labeled cMet; experiment: c-Met binding ELISA by the method of Example 1.3
Description: as §1

[12] = target: EGFR on EGFR-expressing target cells (UniProt P00533 25-1210, limits assumed); experiment: cell-based or functional assay
CD3 on Jurkat cells = target: T6, CD3 on Jurkat cells (UniProt P07766 23-207); experiment: flow cytometry on Jurkat cells, Alexa Fluor 488 anti-human IgG Fc
T6 construct: whole, on cells; CD3 is a multi-chain complex; also called CD3 antigen
Description: 0.5×10⁶ of Jurkat or NCI-N87 cells were washed with FACS buffer (1% BSA/PBS) and resuspended in 50 ul of FACS buffer. mAbs or Fab-bodies were prepared in 50 ul of FACS buffer and mixed with cells and incubated at 4° C. for 1 hr.

T1 sequence (P08581 25-1390 limits assumed): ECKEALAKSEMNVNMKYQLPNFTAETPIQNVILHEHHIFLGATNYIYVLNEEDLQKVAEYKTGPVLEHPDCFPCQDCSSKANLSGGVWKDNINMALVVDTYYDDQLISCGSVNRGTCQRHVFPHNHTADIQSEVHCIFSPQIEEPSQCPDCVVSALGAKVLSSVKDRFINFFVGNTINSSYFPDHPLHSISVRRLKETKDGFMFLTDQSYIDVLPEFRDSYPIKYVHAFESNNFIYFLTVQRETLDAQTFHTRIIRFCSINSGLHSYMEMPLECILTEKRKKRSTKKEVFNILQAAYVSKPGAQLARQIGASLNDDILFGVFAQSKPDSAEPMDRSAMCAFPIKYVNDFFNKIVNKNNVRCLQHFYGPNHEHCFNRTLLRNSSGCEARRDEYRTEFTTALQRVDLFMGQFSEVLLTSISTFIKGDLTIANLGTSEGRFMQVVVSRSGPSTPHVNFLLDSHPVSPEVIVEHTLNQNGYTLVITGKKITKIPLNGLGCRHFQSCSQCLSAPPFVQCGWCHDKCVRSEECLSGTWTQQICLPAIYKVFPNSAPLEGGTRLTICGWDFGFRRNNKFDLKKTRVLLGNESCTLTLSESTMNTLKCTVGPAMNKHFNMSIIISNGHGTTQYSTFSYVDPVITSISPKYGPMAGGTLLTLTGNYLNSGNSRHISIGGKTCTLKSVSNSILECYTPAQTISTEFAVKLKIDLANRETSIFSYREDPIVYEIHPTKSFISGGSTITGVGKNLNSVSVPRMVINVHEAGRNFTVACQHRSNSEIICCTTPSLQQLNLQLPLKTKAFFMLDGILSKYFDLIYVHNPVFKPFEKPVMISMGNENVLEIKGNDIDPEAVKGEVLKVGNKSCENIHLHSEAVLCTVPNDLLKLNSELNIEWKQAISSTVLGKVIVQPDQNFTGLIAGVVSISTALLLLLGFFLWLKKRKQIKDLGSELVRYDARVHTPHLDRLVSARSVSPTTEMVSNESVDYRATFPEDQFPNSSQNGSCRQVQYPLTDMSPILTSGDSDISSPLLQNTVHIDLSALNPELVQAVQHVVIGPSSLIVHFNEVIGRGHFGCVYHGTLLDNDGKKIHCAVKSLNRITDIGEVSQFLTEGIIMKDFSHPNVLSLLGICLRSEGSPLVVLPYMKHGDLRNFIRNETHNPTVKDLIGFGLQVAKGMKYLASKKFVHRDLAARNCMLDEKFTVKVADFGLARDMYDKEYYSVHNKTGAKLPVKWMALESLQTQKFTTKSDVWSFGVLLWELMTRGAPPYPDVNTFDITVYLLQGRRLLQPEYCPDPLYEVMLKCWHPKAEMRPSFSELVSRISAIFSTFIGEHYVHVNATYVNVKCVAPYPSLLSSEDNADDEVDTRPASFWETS
T2 sequence (P55899 24-297, chain 1 of 2): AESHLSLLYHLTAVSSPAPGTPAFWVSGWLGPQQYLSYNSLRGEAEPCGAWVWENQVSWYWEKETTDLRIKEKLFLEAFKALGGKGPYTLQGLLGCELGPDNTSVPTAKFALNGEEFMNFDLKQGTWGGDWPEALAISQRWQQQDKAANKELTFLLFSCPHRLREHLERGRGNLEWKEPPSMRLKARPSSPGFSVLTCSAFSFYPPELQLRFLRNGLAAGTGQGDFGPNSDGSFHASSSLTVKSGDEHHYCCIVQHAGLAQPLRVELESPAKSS
T2 sequence (P61769 21-119, chain 2 of 2, further chain): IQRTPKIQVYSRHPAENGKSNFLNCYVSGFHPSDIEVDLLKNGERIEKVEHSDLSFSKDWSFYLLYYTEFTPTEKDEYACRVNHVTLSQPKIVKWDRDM
T4 sequence (P08581 25-932 limits assumed): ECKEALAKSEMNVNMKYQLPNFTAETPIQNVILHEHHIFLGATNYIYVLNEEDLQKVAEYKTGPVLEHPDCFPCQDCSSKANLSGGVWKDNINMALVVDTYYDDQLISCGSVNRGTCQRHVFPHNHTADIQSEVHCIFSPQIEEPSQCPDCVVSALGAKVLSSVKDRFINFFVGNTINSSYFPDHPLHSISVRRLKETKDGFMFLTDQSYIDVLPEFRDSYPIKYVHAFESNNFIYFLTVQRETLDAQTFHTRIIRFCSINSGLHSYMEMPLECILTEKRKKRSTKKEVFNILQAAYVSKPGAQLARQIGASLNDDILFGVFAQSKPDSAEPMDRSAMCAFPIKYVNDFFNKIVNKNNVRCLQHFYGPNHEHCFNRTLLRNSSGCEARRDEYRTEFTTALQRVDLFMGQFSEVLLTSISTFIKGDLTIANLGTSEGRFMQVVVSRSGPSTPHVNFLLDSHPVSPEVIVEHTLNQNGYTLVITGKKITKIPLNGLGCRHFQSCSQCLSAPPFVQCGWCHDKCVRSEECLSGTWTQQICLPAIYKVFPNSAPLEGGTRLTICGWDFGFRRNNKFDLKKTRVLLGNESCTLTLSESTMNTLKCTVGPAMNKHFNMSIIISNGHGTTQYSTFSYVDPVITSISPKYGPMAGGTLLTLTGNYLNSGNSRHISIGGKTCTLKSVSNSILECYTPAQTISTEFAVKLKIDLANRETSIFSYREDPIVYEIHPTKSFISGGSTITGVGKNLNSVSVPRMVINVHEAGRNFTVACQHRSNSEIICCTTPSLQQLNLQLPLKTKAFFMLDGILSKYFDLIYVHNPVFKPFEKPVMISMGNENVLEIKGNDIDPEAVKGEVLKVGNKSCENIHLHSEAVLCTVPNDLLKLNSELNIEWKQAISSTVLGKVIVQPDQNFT
T3 sequence (P08581 25-932): as the sequence (P08581 25-932 limits assumed) above
T5 sequence (P25942 21-277 limits assumed): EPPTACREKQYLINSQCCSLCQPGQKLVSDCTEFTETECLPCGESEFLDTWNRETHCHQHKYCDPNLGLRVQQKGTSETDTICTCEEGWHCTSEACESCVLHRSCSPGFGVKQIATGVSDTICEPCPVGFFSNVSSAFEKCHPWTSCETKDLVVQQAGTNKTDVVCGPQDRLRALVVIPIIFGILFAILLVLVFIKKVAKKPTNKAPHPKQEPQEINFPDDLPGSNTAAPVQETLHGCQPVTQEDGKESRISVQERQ

B1: cMet Ig (anti-cMet antibody, 5D5 variable domains on human Cg1/Ck) (antibody, human IgG1, kappa)
heavy: not shown
light: DFMMSQSPSSLTVSVGEKVTVSCKSSQSLLYTSSQKNYLAWYQQKPGQSPKLLIYWASTRESGVPDRFTGSGSGTDFTLTITSVKADDLAVYYCQQYYAYPWTFGGGTKLELKRTVAAPSVFIFPPSDEQLKSGTASVVCLLNNFYPREAKVQWKVDNALQSGNSQESVTEQDSKDSTYSLSSTLTLSKADYEKHKVYACEVTHQGLSSPVTKSFNRGEC
notes: VH/VL cloned from hybridoma HB-11895 (5D5.11.6) into pHybE-hCg1,z,non-a and pHybE-hCk; also called cMet mAb; parental cMet mAb
- Inhibition of IM95 Proliferation, EC50 [1]: 0.17 µg/mL
- EC50 [2]: 53.3 µg/mL
- Stoichiometry [3]: 1.51
- EC50 (biotin-labeled cMet [4]): 0.3 nM
- EC50 (biotin-labeled cMet [5]): 0.35 nM
- Kd [6]: 2.67 nM
- koff [6]: 0.000214 s⁻¹
- kon [6]: 80300 M⁻¹ s⁻¹

B2: cMet AA1 Ig (antibody, human IgG1, kappa, V domains shown)
VH: QVQLQQSGPELVRPGASVKMSCRASGYTFTSYWLHWVKQRPGQGLEWIGMIDPSNSDTRFNPNFKDKATLNVDRSSNTAYMLLSSLTSADSAVYYCAAYGSYVSPLDYWGQGTSVTVSS
VL: DFMMSQSPSSLTVSVGEKVTVSCKSSQSLLYTSSQKNYLAWYQQKPGQSPKLLIYWASTRESGVPDRFTGSGSGTDFTLTITSVKADDLAVYYCQQYYAYPWTFGGGTKLELKR
notes: HC CDR3 alanine-scanning mutant paired with the common cMet LC; also called Anti-cMet-AA1
- EC50 (biotin-labeled cMet [4]): 7.25 nM

B3: cMet AA4 Ig (antibody, human IgG1, kappa, V domains shown)
VH: B2 VH with A98T, V103A, S104A
VL: B2 VL
notes: HC CDR3 alanine-scanning mutant paired with the common cMet LC; also called Anti-cMet-AA4
- EC50 (biotin-labeled cMet [4]): 1.24 nM

B4: Anti-CD40 Ig (21.4.1 variable domains on human Cg1/Ck) (antibody, human IgG1, kappa)
heavy: not shown
light: DIQMTQSPSSVSASVGDRVTITCRASQGIYSWLAWYQQKPGKAPNLLIYTASTLQSGVPSRFSGSGSGTDFTLTISSLQPEDFATYYCQQANIFPLTFGGGTKVEIKRTVAAPSVFIFPPSDEQLKSGTASVVCLLNNFYPREAKVQWKVDNALQSGNSQESVTEQDSKDSTYSLSSTLTLSKADYEKHKVYACEVTHQGLSSPVTKSFNRGEC
- agonist activity, NFkB-SEAP reporter in HEK 293 cells, EC50 [7]: 0.12 µg/mL
- EC50 [8]: 0.24 µg/mL
- EC50 [9]: 0.084 µg/mL

B5: Anti-CD40 LA (antibody, human IgG1, kappa, V domains shown)
VH: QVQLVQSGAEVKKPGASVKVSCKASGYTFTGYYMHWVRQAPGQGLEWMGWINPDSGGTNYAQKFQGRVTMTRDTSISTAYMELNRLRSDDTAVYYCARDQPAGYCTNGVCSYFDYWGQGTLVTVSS
VL: DIQMTQSPSSVSASVGDRVTITCRASQGIYSWLAWYQQKPGKAPNLLIYTASTLQSGVPSRFSGSGSGTDFTLTISSLQPEDFATYYCQQANIFPLTFGGGTKVEIKR
- EC50 [9]: 0.189 µg/mL

B6: Anti-CD40 LYNV (antibody, human IgG1, kappa, V domains shown)
VH: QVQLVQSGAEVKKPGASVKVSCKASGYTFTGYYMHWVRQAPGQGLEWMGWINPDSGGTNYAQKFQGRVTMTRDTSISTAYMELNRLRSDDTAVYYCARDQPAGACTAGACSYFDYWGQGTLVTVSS
VL: B5 VL
- binding result [9]: no binding (tested: 0.01 µg/ml to 10 µg/ml)

B7: Anti-CD40 NA (antibody, human IgG1, kappa, V domains shown)
VH: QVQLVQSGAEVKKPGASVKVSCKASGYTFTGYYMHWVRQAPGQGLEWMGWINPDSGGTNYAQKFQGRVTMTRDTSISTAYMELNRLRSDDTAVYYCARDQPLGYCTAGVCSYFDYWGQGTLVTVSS
VL: B5 VL
- EC50 [9]: 2.12 µg/mL

B8: Anti-CD40 VA (antibody, human IgG1, kappa, V domains shown)
VH: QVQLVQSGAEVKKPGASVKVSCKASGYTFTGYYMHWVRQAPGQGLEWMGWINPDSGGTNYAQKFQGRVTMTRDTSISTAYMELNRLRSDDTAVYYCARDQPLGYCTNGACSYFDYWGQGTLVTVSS
VL: B5 VL
- EC50 [9]: 0.125 µg/mL

B9: Anti-CD40 YA (antibody, human IgG1, kappa, V domains shown)
VH: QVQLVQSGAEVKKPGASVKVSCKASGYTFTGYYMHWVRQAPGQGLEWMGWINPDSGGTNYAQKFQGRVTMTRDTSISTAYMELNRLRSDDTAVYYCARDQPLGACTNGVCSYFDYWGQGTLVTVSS
VL: B5 VL
- EC50 [9]: 0.095 µg/mL

B10: Anti-CD40 YNV (antibody, human IgG1, kappa, V domains shown)
VH: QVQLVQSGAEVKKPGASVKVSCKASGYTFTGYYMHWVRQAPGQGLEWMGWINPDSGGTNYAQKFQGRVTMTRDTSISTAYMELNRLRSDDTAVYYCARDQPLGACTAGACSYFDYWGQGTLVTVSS
VL: B5 VL
- binding result [9]: no binding (tested: 0.01 µg/ml to 10 µg/ml)

B11: Anti-human c-Met antibody 5D5 (antibody, V domains shown)
VH: B2 VH with A98T
VL: B2 VL
notes: VH and VL are those cloned from hybridoma HB-11895 (5D5.11.6); also called bivalent antibody 5D5
- Inhibition of HGF-induced phospho-c-Met IC50 (A549 cells) [10]: 1.4 nM
- Inhibition of IM-95 proliferation (HGF-dependent) IC50 [10]: 5.8 nM
- Inhibition of SNU-5 proliferation (constitutively active c-Met) IC50 [10]: > 600 nM
- EC50 (biotin-labeled cMet [11]): 0.08 nM

B12: 5D5 Fab (Fab, V domains shown)
VH: B2 VH with A98T
VL: B2 VL
- Inhibition of HGF-induced phospho-c-Met IC50 (A549 cells) [10]: 5.9 nM
- Inhibition of IM-95 proliferation (HGF-dependent) IC50 [10]: 55.7 nM
- Inhibition of SNU-5 proliferation (constitutively active c-Met) IC50 [10]: > 600 nM
- Inhibition/induction of SNU-620 proliferation (constitutively active c-Met but still HGF-inducible) IC50 [10]: > 600 nM

B13: cMet mAb KH (cMet mAb with knobs-into-holes mutations) (antibody, human IgG1, kappa)
heavy 1: not shown
heavy 2: not shown
light: B1 light
- EC50 [2]: 44.4 µg/mL
- Stoichiometry [3]: 1.53
- Kd [6]: 2.08 nM
- koff [6]: 0.000195 s⁻¹
- kon [6]: 93600 M⁻¹ s⁻¹

B14: cMet AA2 HK MBody (antibody, human IgG1, kappa)
heavy 1: not shown
heavy 2: not shown
light: B1 light
- Inhibition of IM95 Proliferation, EC50 [1]: 0.23 µg/mL
- EC50 [2]: 31.5 µg/mL

B15: cMet AA3 HK MBody (antibody, human IgG1, kappa)
heavy 1: not shown
heavy 2: not shown
light: B1 light
- Inhibition of IM95 Proliferation, EC50 [1]: 1.6 µg/mL
- EC50 [2]: 34.8 µg/mL

B16: cMet AA3 KH MBody (antibody, human IgG1, kappa)
heavy 1: not shown
heavy 2: not shown
light: B1 light
- Inhibition of IM95 Proliferation, EC50 [1]: 2.14 µg/mL
- EC50 [2]: 38 µg/mL

B17: cMet AA6 HK MBody (antibody, human IgG1, kappa)
heavy 1: not shown
heavy 2: not shown
light: B1 light
- Inhibition of IM95 Proliferation, EC50 [1]: 2.73 µg/mL
- EC50 [2]: 47.1 µg/mL

B18: cMet AA6 KH MBody (antibody, human IgG1, kappa)
heavy 1: not shown
heavy 2: not shown
light: B1 light
- Inhibition of IM95 Proliferation, EC50 [1]: 1.86 µg/mL
- EC50 [2]: 51.1 µg/mL

B19: MetMAb1 (antibody, V domains shown)
VH: EVQLVESGGGLVQPGGSLRLSCAASGYTFTSYWLHWVRQAPGKGLEWVGMIDPSNSDTRFNPNFKDRFTISADTSKNTAYLQMNSLRAEDTAVYYCATYRSYVTPLDYWGQGTLVTVSS
VL: DIQMTQSPSSLSASVGDRVTITCKSSQSLLYTSSQKNYLAWYQQKPGKAPKLLIYWASTRESGVPSRFSGSGSGTDFTLTISSLQPEDFATYYCQQYYAYPWTFGQGTKVEIKR
notes: also called monovalent c-Met antibody MetMAb1
- Inhibition of HGF-induced phospho-c-Met IC50 (A549 cells) [10]: 3.8 nM
- Inhibition of IM-95 proliferation (HGF-dependent) IC50 [10]: 17.4 nM
- Inhibition of SNU-5 proliferation (constitutively active c-Met) IC50 [10]: > 600 nM
- Inhibition/induction of SNU-620 proliferation (constitutively active c-Met but still HGF-inducible) IC50 [10]: > 600 nM
- EC50 (biotin-labeled cMet [11]): 0.27 nM

B20: anti-cMet h5D5 Fab-body (antibody, human IgG1, kappa, V domains shown)
VH: B19 VH
VL: B19 VL
notes: Monovalent Fab-Fc heterodimer: LFc chain (VL-CL-linker-Fc knob) and HFc chain (VH-CH1-linker-Fc hole)
- Inhibition of HGF-induced phospho-c-Met IC50 (A549 cells) [10]: 2.6 nM
- Inhibition of IM-95 proliferation (HGF-dependent) IC50 [10]: 12.8 nM
- Inhibition of SNU-5 proliferation (constitutively active c-Met) IC50 [10]: 4.1 nM
- Inhibition/induction of SNU-620 proliferation (constitutively active c-Met but still HGF-inducible) IC50 [10]: > 600 nM
- EC50 (biotin-labeled cMet [11]): 0.24 nM

B21: DB001 DVD-Ig (CD3 and EGFR) (bispecific antibody)
VH: QVQLQESGPGLVKPSQTLSLTCTVSGYSISSDFAWNWIRQPPGKGLEWMGYISYSGNTRYQPSLKSRITISRDTSKNQFFLKLNSVTAADTATYYCVTAGRGFPYWGQGTLVTVSSASTKGPEVQLVESGGGLVQPGGSLRLSCAASGFTFSTYAMNWVRQAPGKGLEWVGRIRSKYNNYATYYADSVKDRFTISRDDSKNTAYLQMNSLRAEDTAVYYCTRHGNFGNSYVSWFAYWGQGTLVTVSS
VL: DIQMTQSPSSMSVSVGDRVTITCHSSQDINSNIGWLQQKPGKSFKGLIYHGTNLDDGVPSRFSGSGSGTDYTLTISSLQPEDFATYYCVQYAQFPWTFGGGTKLEIKTVAAPSVFIFPPDAQVTQSPSSLSASVGDRVTITCRSSTGAVTTSNYANWVQEKPGKLFKGLIGGTNKRAPGVPSRFSGSGSGTDATLTISSLQPEDFATYFCALWYSNLWVFGGGTKVEIKR
notes: also called parental DVD-Ig
- Redirected Cytotoxicity (rCTL), EC50 [12]: 1.5 nM
- EC50 (CD3 on Jurkat cells): 74 nM

B22: cMet AA5 Ig (antibody, human IgG1, kappa, V domains shown)
VH: B2 VH with A98T
VL: B2 VL
notes: the intended AA5 mutation is not visible; also called Anti-cMet-AA5
- EC50 (biotin-labeled cMet [4]): 1.81 nM
